Paper PMC4134136 (PLoS ONE, 2014)

Molecular target: the molecule itself
Assay: crystal structure; NOD1 CARD and Ub mixed 1:1, 1 mM each, in GF buffer (25 mM sodium phosphate, 25 mM NaCl, 5 mM DTT, pH 7.0); hanging drop, 100 mM PCB, 25% PEG 1500, pH 9.0 (crystals formed at pH ~8.6); 2.90 Å

B1: Caspase Recruitment Domain (CARD) of human NOD1, residues serine 16 to glycine 108 (domain or fragment)
chain: SHPHIQLLKSNRELLVTHIRNTQCLVDNLLKNDYFSAEDAEIVCACPTQPDKVRKILDLVQSKGEEVSEFFLYLLQQLADAYVDLRPWLLEIGLE
modifications: dimethyl-arsenic adduct on the sulfhydryl of Cys59 (formed in the crystallization buffer with cacodylate and DTT)
notes: NOD1, human, CARD, residues serine 16 to glycine 108; leucine and glutamic acid inserted between glycine 108 and the 6xHis-tag, from an XhoI restriction site; Purified as a monomer (gel filtration removed residual dimer); in the crystal a homodimer with swapped sixth helices; also called NOD1 CARD; CARD A
  binding result: binds
